# Reference: patent publication US20200199204A1 (UNITED STATES OF AMERICA AS REPRESENTED BY THE SECRETARY …, published 2020)
# B1: CAP256-VRC26.09 (antibody, V domains shown)
# VH: EVQLVESGGGVVQPGRSLTLSCAASQFNFANYGMHWVRQAPGKGLEWVASISNDGTKKYHEESVWGRFTISKDNSKSTLFLQMNSLRIEDTALYFCVKDQREDECEEWWSDYYDFGRELPCRKSRGLGLAGIFDMWGHGTMVTVSS
# VL: QSALTQPPSVSAAPGQKVTISCSGNSSNIGNNFVSWYQQLPGTAPKLLIYENNRRPSGIPDRFSGSKSGTSATLAISGLQTGDEADYWCAVWGVRRGAGAVFGAGTKVTVLG
# B2: CAP256-VRC26.11 (antibody, V domains shown)
# VH: EVQLVESGGGVVPPGKSLTLSCVASRFTFSAFGMHWVRQAPGKGLEWVASISFAGIKKYYADSVKGRFSISRDNSNTLFLQMNGLRGEDTGLYHCVKDMRELECEEWASDYYDFGKPQPCLDRRGVSGISAWWGPGTMVTVSS
# VL: QSVLTQPPSVSAAPGQNVTISCSGPPSHIEKNDVSWYQRLPGMAPKMVIYESKRRPLGIPVRFSASRSGSSATLVITGLQTADEADYYCGTWDGRMNFGTGTTVSVLG
# B3: CAP256-VRC26.12 (antibody, V domains shown)
# VH: EVQLVQSGGGVVQPGRSLRLSCAAPYFEFGRYGFHWVRQAPGKGLEWVASISFAGRDYYHSPSVWGRFTISRDNSKNTLYLQMNSLRIEDTALYFCARDLRESECEEWESDYYDFGKKGPCVKPRGVAGGLDLWGQGTMVIVSS
# VL: QSVLTQPPSVSTAPGQTVTVSCSGGTSNTGNNFVSWYQHLPGTAPKLLIYENNKRPLGVPDRFSGAKSGTSATLAITGLQTGDEGDYYCATWSGSLNIGTGTKVSVLG
# B4: CAP256-VRC26.07 (antibody, V domains shown)
# VH: EVQLVESGGGVVQPGRSLRLSCVGSQFSFNRYGMHWVRQAPGKGLEWVAGISFDGTDRYHADNVWGRFTISRDNSKNTLYLQMSSLRAEDTALYYCAKDLREDECEEWWSDYYDFGKKLPCRKSRGVAGVFDKWGQGTMVTVSS
# VL: QAVLTQPPSVSAAPGQNVTISCSGSGSNIGNNFVSWYQQRPGTAPKLLIYESNKRPSGIPDRFSGSKSGTSATLAITGLQTGDEAYYYCATWAARLNSARVFGTGTMVTVLG
# How the values were obtained:
# Test in all cases: cell-based or functional assay
# [1] = target: HIV-1 Env of strain CNE3 (clade AE), on Env-pseudovirus (HIV-1 strain CNE3)
# [2] = target: HIV-1 Env of strain TH976.17 (clade AE), on Env-pseudovirus (HIV-1 strain TH976.17)
# [3] = target: SIV Env of SIVmac251.30 (nonHIV control), on Env-pseudovirus (SIVmac251.30)
Binder,"IC50, neutralization of Env-pseudovirus (TZM-bl assay) [1] [µg/mL]","IC50, neutralization of Env-pseudovirus (TZM-bl assay) [2] [µg/mL]","IC50, neutralization of Env-pseudovirus (TZM-bl assay) [3] [µg/mL]"
B1,> 50,> 50,> 50
B2,> 50,> 50,
B3,> 50,> 50,
B4,> 50,> 50,
